Test results from article PMC3276066.

Biological target: Encephalitozoon cuniculi TATA box binding protein, full length (Encephalitozoon cuniculi)

## Encephalitozoon cuniculi Mot1 N-terminal domain (HEAT domain, residues 1–779) (domain or fragment)
  stoichiometry N: 1 Mot1:TBP
